Reference: patent US11028180

What was measured:
human Jagged2-Fc = human Jagged2-Fc (human, UniProt Q9Y219); test: ELISA
[1] = target: T1, human Jagged1 on 293/293T cells (human, UniProt P78504); test: FACS
murine DLL1-His = murine DLL1-His (mouse, UniProt Q61483); test: ELISA
[2] = target: rat Jagged1 on 293T cells (rat, UniProt Q63722); test: FACS
human Jagged1-His = human Jagged1-His (human, UniProt P78504); test: ELISA
[3] = target: T2, murine Jagged1 on 293T cells (mouse, UniProt Q9QXX0); test: FACS
T2 chain: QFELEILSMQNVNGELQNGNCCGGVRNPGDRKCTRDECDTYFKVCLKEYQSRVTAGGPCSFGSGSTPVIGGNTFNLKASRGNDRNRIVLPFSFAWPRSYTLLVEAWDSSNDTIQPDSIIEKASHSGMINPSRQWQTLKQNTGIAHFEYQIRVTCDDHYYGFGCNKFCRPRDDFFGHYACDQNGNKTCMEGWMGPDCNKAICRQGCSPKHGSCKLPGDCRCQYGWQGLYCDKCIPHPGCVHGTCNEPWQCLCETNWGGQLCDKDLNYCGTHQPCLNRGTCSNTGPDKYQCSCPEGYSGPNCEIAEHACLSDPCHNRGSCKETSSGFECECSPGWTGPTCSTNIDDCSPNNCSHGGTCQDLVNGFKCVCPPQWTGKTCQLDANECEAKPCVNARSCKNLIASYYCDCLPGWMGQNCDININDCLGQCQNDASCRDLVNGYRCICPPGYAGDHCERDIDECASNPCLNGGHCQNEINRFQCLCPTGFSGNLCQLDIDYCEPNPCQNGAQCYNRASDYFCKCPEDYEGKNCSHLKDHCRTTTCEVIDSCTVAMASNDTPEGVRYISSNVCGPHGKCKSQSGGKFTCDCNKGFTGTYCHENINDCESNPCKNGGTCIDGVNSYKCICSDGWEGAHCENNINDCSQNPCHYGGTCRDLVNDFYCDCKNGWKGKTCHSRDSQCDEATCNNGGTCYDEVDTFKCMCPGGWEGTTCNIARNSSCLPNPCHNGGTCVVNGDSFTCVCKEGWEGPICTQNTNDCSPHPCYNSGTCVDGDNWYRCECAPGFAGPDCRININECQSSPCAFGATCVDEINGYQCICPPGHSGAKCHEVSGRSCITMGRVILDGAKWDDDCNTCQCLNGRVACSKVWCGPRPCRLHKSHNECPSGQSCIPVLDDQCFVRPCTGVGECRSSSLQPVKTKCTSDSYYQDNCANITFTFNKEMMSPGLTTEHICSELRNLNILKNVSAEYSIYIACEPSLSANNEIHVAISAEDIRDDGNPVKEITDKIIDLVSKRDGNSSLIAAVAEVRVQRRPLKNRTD

[4] = target: T1, human Jagged1 on 293/293T cells; test: KinExA, on-cell
[5] = target: human Jagged1 ECD-His (Met1-Ser1046) (human, UniProt P78504); test: BLI
human Jagged1 ECD-His (Met1-Ser1046), sequence (P78504 1-1046): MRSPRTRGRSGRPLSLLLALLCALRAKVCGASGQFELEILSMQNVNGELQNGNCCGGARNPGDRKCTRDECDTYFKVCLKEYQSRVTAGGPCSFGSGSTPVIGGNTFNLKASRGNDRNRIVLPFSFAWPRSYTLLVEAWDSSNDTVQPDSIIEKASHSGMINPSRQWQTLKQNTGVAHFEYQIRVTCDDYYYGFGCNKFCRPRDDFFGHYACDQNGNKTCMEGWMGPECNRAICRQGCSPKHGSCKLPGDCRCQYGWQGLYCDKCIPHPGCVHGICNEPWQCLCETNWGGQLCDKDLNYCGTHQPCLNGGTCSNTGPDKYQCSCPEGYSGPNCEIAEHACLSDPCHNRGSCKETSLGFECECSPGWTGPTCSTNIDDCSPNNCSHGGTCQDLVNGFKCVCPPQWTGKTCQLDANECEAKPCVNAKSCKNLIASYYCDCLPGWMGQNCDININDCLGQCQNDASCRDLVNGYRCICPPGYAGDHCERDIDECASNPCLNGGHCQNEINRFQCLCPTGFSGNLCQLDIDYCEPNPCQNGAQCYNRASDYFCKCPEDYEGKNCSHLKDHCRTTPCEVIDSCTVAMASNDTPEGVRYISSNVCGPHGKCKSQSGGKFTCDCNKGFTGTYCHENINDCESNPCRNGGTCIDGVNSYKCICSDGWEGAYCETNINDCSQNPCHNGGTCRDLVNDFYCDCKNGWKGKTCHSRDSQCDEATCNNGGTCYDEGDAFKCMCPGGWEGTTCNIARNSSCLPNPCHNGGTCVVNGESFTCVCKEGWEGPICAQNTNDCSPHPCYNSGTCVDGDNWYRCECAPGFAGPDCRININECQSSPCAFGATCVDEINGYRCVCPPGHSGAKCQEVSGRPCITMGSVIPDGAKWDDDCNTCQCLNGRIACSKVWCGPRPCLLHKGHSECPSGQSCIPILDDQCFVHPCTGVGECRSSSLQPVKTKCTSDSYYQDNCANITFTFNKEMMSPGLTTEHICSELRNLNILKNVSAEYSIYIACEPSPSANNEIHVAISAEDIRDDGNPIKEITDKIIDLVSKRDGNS

human Jagged1-Fc = human Jagged1-Fc (human, UniProt P78504); test: ELISA
murine DLL4-His = target: T3, murine DLL4-His (mouse, UniProt Q9JI71); test: ELISA
T3 chain: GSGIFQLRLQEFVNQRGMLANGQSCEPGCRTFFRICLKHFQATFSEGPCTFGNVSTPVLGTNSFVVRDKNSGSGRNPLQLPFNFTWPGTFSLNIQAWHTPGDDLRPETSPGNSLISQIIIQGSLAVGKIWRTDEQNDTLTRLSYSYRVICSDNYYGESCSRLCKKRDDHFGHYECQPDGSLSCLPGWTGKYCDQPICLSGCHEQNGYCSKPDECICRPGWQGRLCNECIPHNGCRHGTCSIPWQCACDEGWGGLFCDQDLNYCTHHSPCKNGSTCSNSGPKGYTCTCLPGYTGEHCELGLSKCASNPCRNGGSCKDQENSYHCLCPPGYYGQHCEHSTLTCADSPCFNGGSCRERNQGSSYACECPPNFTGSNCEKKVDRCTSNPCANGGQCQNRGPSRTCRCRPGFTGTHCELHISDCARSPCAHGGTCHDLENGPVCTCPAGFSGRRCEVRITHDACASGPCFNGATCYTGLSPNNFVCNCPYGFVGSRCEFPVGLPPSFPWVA

rat Jagged1-Fc = rat Jagged1-Fc (rat, UniProt Q63722); test: ELISA
human DLL4-His = human DLL4-His (human, UniProt Q9NR61); test: ELISA
human DLL4-His, sequence (Q9NR61 27-529): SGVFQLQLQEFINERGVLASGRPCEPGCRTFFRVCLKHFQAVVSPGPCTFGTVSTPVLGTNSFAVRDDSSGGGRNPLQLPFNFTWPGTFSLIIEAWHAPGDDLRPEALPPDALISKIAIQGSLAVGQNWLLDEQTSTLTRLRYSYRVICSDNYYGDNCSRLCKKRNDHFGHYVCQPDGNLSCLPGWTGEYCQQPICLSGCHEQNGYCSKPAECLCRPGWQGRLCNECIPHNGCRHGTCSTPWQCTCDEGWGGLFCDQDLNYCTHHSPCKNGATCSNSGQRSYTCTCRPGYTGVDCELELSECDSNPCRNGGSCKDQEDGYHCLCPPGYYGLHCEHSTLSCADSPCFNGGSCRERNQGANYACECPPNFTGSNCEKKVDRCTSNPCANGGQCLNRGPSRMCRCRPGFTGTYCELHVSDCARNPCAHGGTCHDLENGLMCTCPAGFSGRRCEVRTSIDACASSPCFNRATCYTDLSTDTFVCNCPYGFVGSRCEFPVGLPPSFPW

murine Jagged2-Fc = murine Jagged2-Fc (mouse, UniProt Q9QYE5); test: ELISA
murine Jagged2-Fc, sequence (Q9QYE5 24-1082): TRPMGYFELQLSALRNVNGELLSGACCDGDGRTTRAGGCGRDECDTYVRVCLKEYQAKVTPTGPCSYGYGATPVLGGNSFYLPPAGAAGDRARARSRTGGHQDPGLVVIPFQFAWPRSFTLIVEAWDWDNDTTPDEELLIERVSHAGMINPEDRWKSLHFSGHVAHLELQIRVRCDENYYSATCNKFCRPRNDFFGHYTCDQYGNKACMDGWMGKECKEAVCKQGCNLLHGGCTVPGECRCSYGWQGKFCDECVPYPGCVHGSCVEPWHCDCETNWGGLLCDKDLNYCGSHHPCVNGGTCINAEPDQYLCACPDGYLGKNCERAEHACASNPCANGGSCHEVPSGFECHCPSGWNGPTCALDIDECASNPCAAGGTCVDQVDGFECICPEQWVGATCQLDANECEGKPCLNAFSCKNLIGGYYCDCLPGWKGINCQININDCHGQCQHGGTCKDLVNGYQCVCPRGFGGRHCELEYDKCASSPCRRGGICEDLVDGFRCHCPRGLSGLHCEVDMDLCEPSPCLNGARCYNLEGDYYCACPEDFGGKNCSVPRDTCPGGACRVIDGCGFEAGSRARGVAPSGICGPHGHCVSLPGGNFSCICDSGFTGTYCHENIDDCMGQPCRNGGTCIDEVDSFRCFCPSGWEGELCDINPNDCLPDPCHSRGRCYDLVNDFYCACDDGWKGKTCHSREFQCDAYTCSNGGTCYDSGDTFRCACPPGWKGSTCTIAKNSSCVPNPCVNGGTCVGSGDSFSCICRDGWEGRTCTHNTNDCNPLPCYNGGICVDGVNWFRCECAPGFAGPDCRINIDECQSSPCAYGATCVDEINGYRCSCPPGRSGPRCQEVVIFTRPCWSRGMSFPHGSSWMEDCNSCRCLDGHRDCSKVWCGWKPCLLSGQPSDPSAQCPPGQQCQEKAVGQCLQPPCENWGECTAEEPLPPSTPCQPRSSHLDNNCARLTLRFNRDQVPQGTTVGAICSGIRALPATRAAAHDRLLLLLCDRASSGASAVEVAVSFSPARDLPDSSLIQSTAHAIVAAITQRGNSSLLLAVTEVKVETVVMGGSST

human Jagged2-Fc, sequence (Q9Y219 24-1080): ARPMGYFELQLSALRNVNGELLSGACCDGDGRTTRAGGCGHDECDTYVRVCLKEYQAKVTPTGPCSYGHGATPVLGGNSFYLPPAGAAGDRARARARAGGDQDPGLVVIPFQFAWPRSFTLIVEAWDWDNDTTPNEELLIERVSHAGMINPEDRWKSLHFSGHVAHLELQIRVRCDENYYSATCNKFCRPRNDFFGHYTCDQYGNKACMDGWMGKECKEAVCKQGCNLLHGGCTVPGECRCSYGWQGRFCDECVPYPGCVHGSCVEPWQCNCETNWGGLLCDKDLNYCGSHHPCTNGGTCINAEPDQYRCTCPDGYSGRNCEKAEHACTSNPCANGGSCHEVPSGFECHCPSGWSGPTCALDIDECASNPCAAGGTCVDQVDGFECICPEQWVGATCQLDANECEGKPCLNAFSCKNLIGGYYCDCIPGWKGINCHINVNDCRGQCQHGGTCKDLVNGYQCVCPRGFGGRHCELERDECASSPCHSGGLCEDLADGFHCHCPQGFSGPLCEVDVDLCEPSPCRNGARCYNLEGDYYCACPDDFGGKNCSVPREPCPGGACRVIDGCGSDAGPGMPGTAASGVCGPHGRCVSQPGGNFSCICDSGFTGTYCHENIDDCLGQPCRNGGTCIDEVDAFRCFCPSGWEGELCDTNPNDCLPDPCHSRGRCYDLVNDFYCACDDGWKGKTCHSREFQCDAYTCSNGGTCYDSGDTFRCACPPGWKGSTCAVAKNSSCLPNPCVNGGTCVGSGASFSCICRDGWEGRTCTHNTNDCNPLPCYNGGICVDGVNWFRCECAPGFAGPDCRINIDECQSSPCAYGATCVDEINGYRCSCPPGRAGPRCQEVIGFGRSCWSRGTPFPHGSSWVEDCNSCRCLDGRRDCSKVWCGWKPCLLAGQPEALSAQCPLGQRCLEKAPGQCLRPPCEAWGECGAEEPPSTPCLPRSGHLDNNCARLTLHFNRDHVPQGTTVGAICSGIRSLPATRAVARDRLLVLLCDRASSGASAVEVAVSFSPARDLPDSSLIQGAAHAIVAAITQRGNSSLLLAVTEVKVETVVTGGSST
murine DLL1-His, sequence (Q61483 18-545): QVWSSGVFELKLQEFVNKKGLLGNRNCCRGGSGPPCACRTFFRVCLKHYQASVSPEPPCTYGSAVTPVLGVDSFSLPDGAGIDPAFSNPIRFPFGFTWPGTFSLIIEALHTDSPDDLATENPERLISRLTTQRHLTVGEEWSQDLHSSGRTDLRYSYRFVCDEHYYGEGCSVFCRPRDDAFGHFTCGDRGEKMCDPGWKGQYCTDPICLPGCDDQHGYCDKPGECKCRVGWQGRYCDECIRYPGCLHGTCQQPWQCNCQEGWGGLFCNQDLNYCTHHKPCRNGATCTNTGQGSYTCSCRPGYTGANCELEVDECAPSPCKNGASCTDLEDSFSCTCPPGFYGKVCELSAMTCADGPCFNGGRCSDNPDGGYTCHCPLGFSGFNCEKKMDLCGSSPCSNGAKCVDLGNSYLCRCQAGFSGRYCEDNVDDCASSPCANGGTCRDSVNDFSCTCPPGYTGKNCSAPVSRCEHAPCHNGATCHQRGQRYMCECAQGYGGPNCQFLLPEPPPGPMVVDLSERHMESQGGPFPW

binding result (human Jagged2-Fc): no binding
EC50 [1]: 290 pM
binding result (murine DLL1-His): no binding
EC50 [2]: 250 pM
EC50 (human Jagged1-His): 390 pM
EC50 [3]: 360 pM
Kd [4]: 125 pM
Kd [5]: 614 pM
EC50 (human Jagged1-Fc): 800 pM
binding result (murine DLL4-His): no binding
EC50 (rat Jagged1-Fc): 510 pM
binding result (human DLL4-His): no binding
binding result (murine Jagged2-Fc): no binding
B1: 15D11.1 (antibody, V domains shown)
VH: QVTLKESGPVLVKPTETLTLTCTVSGFSLSNAEMGVSWIRQPPGKALEWLAHLFSNDEKSYSTSLKSRLTISKDTSKSQVVLTMTDLDPVDTATYYCARSFNWNYDFDYWGQGTLVTVSS
VL: QSALTQPASVSGSPGQSITISCTGTSSAVGGHNFVSWYQQYPGKAPKLMIYEVSNRPSGVSTRFSGSKSGNTASLTISGLQAEDEADYYCSSYTSSSTWVFGGGTRLTVL
